# Where “and” joins values, the source holds several entries; their conditions need not be identical. Identical values can stand only once.
# How the values were obtained:
# [1] = target: p33 protein of citrus tristeza virus (CTV) (citrus tristeza virus); assay: SDS-PAGE and western blot of SDS-resistant oligomers; crude extract: leaf discs of agroinfiltrated N. benthamiana macerated directly in SDS loading buffer with 8 M urea; blot with anti-p33 antibody; empty vector as control
# [2] = target: p33 protein of citrus tristeza virus (CTV) (citrus tristeza virus); assay: SDS-PAGE and western blot of SDS-resistant oligomers; p33 immunoprecipitated from N. benthamiana leaf lysate with anti-p33 antibody on protein A magnetic beads, eluted in SDS loading buffer with 100 mM DTT and 8 M urea at 70 °C; blot with anti-p33 antibody
substance,measurement,setting,value
p33 protein of citrus tristeza virus (CTV) (natural protein),stoichiometry N,[1],2 and 4
same,stoichiometry N,[2],2 and 4
